Assay results as given in patent publication US20110206615A1.

Target: mKO2-Nrf2 fusion molecule (mKO2 fused to amino acids 1-100 of human Nrf2, released from the probe reagent mKO2-Nrf2-100-T2A-Keap1 by self-cleavage at T2A) (human) (UniProt Q16236)
Experiment: cell-based or functional assay

Chain of UniProt Q16236 (Q16236 other isoform, or with tags, fused parts or gaps): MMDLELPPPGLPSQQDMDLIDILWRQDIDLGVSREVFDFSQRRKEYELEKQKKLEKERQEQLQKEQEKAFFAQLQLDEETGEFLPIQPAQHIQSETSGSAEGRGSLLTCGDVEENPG

## human Keap1 (regulatory factor, released from mKO2-Nrf2-100-T2A-Keap1 by self-cleavage at T2A) (from UniProt Q14145 1-624)
  fluorescent intensity of mKO2 in HeLa cells after addition of DEM (oxidative stress inducer) at 100 µM: 10 times
